Assay: soluble on expression in E. coli; label from the status in PepcDB or PDB records

| Sequence | soluble on expression in E. coli |
| --- | --- |
| MKIVRRDFVRNGPGSVKMVAEDSDDLWYAYNLIAVGDSVMAVTFRKVQREIPGGGRDSERVKLKLEVQVEEVDYDKDGSVLRIRGKNILENEHVKIGAFHTLELELKRPFVLRKEMWDSMALDTLKQASDPAASADLAVVLMQEGLAQIFLVGRSVTSSRARIETSIPRKHGPAIAGYESALKKFFENVLQAFVKHVDFSVVRCAVVASPGFTKDQFHRHLLLEAERRQLRPIIENKSRIILVHTNSGYRHSLGEVLHAPNVMNMIKDTKAAKEVKALNDFHNMLSTEPDRACYGPKHVEVANERMAIQTLLITDELFRNSDVKTRKKYVNLVESVKDSGGDAFIFSAMHVSGEQLAQLTGIAALLRFPLPELEDIEM | soluble |
| MLTAQTKNTQTLMPLTERVNVQADSARINQIIDGCWVAVGTNKPHAIQRDFTNLFDGKPSYRFELKTEDNTLEGYAKGETKGRAEFSYCYATSDDFKGLPADVYQKAQITKTVYHHGKGACPQGSSRDYEFSVYIPSSLDSNVSTIFAQWHGMPDRTLVQTPQGEVKKLTVDEFVELEKTTFFKKNAGHEKVVRLDKQGNPMKDKNGKPVYKAGKLNGWLVEQGGYPPLAFGFSGGLFYIKANSDRKWLTDKDDRCNANPGKTPVMKPLTSEYKASTIAYKLPFADFPKDCWITFRVHIDWTVYGKEAETIVKPGMLDVRMDYQEQGKKVSKHIVNNEKILIGRNDEDGYYFKFGIYRVGDSTVPVCYNLAGYSERLE | soluble |
| MGHHHHHHSHGSYANEISSSIIINRPAERLFDLWRKPETLPILMGHFASIEILNHTDSNWRINTPIGSLIEWQARIIDEKPGEYIHWRSLEGARVPNEGRLSFQPAASEAGTAVTLTIRYNPPGGLIGKKIGQMFDMFSRDMLTKTLYRFKKLAEDER | soluble |
| SLTMNPLLTAEWGNVSEEKVEVVVDAGLGKALLVPASVESLSMQFNGVEVASLEEFDYSPTKSNARIVIGIDPNELVRALERYFESNQHGELSVEAKLGLFGLLHSTLTFSREFQQDILGQMDFKAESKPIFGGLLYTPSVEGTKVVWLGAENGVWNLKTYATLKNPNSFPIPVSNLEFEVSVNGIKVGVGNISQGVTIPAGGVATVPIDTEIYSEYLPTVLVAHIKNGEESSVEVNFYITVSSGGKSARINLTSERIVIQTDIMASINDALSGVSPRE | soluble |
| MSLEKHKVDFYNIPIVDYLLSIGEPLESVGHNYYQHKHHDSLKINQRKNYFVWNSRSSEKNSRGGVVQYMQIMHNLSLQETLSKLSEDLDGKVLPAIPKKSYPKKFNYKVKEAIVPLETQRYLVAKRKIPNKIVRLFFSYDLISQNENNEVIFKWFKGDKVMGFSKQGTIPLTDEEKEKYHTKRDFFKYVAPTTEADTMWGFNYLSGEPKHIFFFESEIDLMSYYSIFEEELNETGNFWLISINGVAIEKVYSFFRYGIENLNLKETCQSLHVCFDNDIAGKQACNKLQHLEFKNIPFQNDLPKEFKDWNEVLQNKEGHHHHHH | soluble |
| MSLSIPDRRAKLDRAHGVLSIRRQCRLLGLSRSSVYRTPLPANDDDLALMRRIDELFTARPFLGSRRMAWLISEDGVRINRKRVQRLMRKMGIEALGPKPRTSKPAPGHRIYPYLLRAMTIDRPNQVWATDITYIPMGRGFLYLVAVIDWASRAVLSWRLSNTMDVSFCVDALEEALSRFGKPQIFNTDQGSQFTSAAFTSVLEAAGIQISMDGRGRWMDNVFIERLWRSLKHEDVYLKFNEGHHHHHH | not soluble |
| MKRGTITIDGKGNVHIPSTPVWMSACEIADLFGAFSGKVSVQIKTIFKEGLLMETEAMRTIQSGQGFIDLYGIEMITMLSFRIATPQAKTLRRWIIDRLSGKNSSSSPLIVCYTLGKRYN | not soluble |
| MSLIHIAIAEDDFRVAQIHERLIKQLDGFKIIGKAANAKETLALLKEHKADLLLLDIYMPDELGTALIPDIRSRFPEVDIMIITAATETRHLQEALRAGIAHYLIKPVTADKFRQVLLQYKEKRKLLMSQPEVSQSMIDHIFGNGVKTALPAEDLPTGINSITLRKIKEALQTASEGLTAEELGEKMGASRTTARRYAEYLVSKEEARAELEYGIIGRPERKYYLAADEGHHHHHH | soluble |
| MTIWEISEKADYIAQRHRRLQDQWHIYCNSLVQGITLSKARLHHAMSCAPDKELCFVLFEHFRIYVTLADGFNSHTIEYYVETKDGEDKQRIAQAQLSIDGMIDGKVNIRDREQVLEHYLEKIAGVYDSLYTAIENNVPVNLSQLVKGQSPAA | soluble |
| IGDFHYGIGASMSYLNTEVVNVNQAYQEYDYLYTKGNRIGQMYGLEAIGFFNSQQEINNSPQQTFSDVAPGDVKYKDQNGDNRIDEKDIVKMFGSSVPRFYFGFNLNFSYKRLELSADFQGMTGVTVSLLNSPLYSPLVSNGNISNTFLNEEISWTPENKTNATMPRLTTQENLNNYRASSLWYRDGSFLKLRNLLVAYTFPKSQTRFADLKVFVQGTNLFSLDNIHFADPEQLGIAYPSTRSYWAGIKLNF | not soluble |
| SAQKVEAKGGKGGNQWDDGSDHDAVTKIQVAVGGMGIQYIQFDYVKNGQTEQTPLRGIKGSTIPTDPFVINHPEEHLVSIEIWYKPDGLIQGLRFISNKKTSRFIGYDRGTRSFLQVQDKKIIGFHGSAGDNLNSLGAYFAPLTIPLTPAKPLPALGSDDGTAWDDGAYVGVKKVYVGQAQDGISAVKFVYDKSPEEVTGEEHGKSTLLGFEEFVLDYPSEYIIAVEGTYDKIFGSDGSVITMLRFKTNKQTSPPFGLEAGTAFELKEEGHKIVGFHGRADALLHKIGVHVRPVSN | soluble |
| MDLNATNYIRGCQSKTYDGKIFPGKGGEKQWICKDTIIHGDTNGACIPPRTQNLCVGELWDKSYGGRSNIKNDTKELLKEKIKNAIHKETELLYEYHDTGTAIISKNDKKGQKGKNDPNGLPKGFCHAVQRSFIDYKNMILGTSVNIYEHIGKLQEDIKKIIEKGTPQQKDKIGGVGSSTENVNAWWKGIEREMWDAVRCAITKINKKNNNSIFNGDECGVSPPTGNDEDQSVSWFKEWGEQFCIERLRYEQNIREACTINGKNEKKCINSKSGQGDKIQGACKRKCEKYKKYISEKKQEWDKQKTKYENKYVGKSASDLLKENYPECISANFDFIFNDNIEYKTYYPYGDYSSICSCEQVK | soluble |
| MSLCWILMASHAQAEPFKIGLLVWSDQIAGQVAMRAGLEAEAAHLQQQARDKNLPSFTLDIKLAGDGPAGVEKQIQQMQAMVDDRVDLIIVQPTDNAALSSPLQAANQAGIPVVAYDQYISGGHLSAFVTSNNYQAGFLDGEYMAHHFADDHTIQIILVEYPYVSSTIDRVDGFFDALNQYKQPYRILRSYQAVEPVQGRAVGQQILQDFPQPGSVDALFTINDGGGLAIVDELEKAGRHELFVATIDGDPNSVARIRKGSIIKIDSAQFCGPIGAEAMRAAYAILTAGKVHEHWLVPVFPITRQSVAHYPGWSGPIPEHYSNPCLTFLCREGHHHHHH | soluble |
| MESGFTACISIITGVKSIYRWKNNIEENQEIMCFFKTAEDTSSHSLYRGVITSS | not soluble |
| MSLGSSDLPAHALVGYLHASFANGSGYTRMADVPDSWDVIDLAFGEPTSVTSGDIRFERCPVAECPNVESDAEFKAAIKAKQAAGKKVLISIGGQNGQVQLTSTAARDKFVSSVSAIIDEYGLDGLDIDFEGHSLSLNADDTDFKNPKTPVIVNLVSAVKTLKAKYGDGFVLTMAPETFFVQLGYQYYGTGKWGGQDPRAGAYLPVIHALRDDLTLLHVQDYNSGSIMGLDNQYHSMGGADFHIAMTDMLLTGFPVAGDANNVFPPLRPDQVAIGMPASTQAGNGHVSPAEVTKALNCLTKKTDCGSYATHGTWPDLRGLMTWSINWDRYSNWEFQKNFDAYFGEGHHHHHH | soluble |
| MGSDKIHHHHHHMKKVLTAALLMTAPFMANAGADFVKGDKTFAGEAELGATLTTGNTDTSSYKGRLNFKHELGDWENQYLLEGLYKEDTGAVTAKRYLAGAQGNYKMNDRSYWFANANYEVDPFTGYDYTLSGATGYGHRLLDTSKTFLDVEIGPGYIYQRLDSEQALLEGTDSNDSVVAHGVINFETEITETSKFQQRFVADYGEKLDARSETSLTANIIGALAMKFAIIVRYNSEPLDDKKSTDTETNMTLLYSF | not soluble |
| MGSDKIHHHHHHMLKLKKILADLHVEQAELAEQMAYSQATISQLVNHSVWPKRAARWGLRERILKFLKERGANDDQVATAFEEWTPTRGNASESGSHTPTGGTEDEAMSIRKQILHPNTRRHFKLPGDPFEEVASAEEFYQNEHIRFTRAAMLDAAKRGGFLAVVGESGSGKTTMRRDLQERIERESIQVQVIRPYVVAMEDNDDKGKTLKATHIAEAIMAAVAPHEVLKTSSEARFRQVEKALKESYRTGMRHVVLIEEAHAMPLATLRHLKRFIELEDGFTRLLSVILIGQTELAIKLNPKNATVREVVQRCELITLPPLGQYLEDYLKFRFARLGVQLDQMVTLDGVQAIRSRLQPEAPRGHEERSFLYPLAVHNLLTAAMNLAAENGAPAVSADIVMEAKWN | not soluble |
| MGSDKIHHHHHHMGVFLDKSIKEVVDELNGRYFLPDIQREYVWLQNADGKKIEQLFDSILRGYPIGFFLFWKLPKEDIAKSDEQDSDKLNFQLYQFITNYDERKPHNEKIRIEQIKRDDLYIVLDGQQRLTSLYIGLKGTRTLKKKNARYDNPNAYEEKRLYLNLKHQPNMDNPEDNYEFEFHAQKPENDKKHWWFKVGDILESESHVWNYADEHGLKGNELKLLGDLHRAFHTKQLVSFFEETEKNLNKVLNIFIRVNSGGVKLSYSDLLMSILTASFSSDIREKMNELVDALKDKGFSNMG | not soluble |
| MDVQLPYNVKIEAFEGPLDLLLHLINRYEIDIYDIPVAQITEQYMAYIHAMQELELDIASEYLVMAATLLAIKSKMLLPPSNEEAVDGDIEWGDDGDPREELTQRLLEYKKFKEAARELKRREEERALLFTKPPSDLSAYADEKKAAPLDVNVYDMLGALSKLLRRKKLQKPMRAKISRQDISVEQRMAEILHELKQANGRKNFYELFPSYDRSYIVVTFLAILELMKQDEIIVEQERNFSDLFLAVKPAG | not soluble |
| MGHHHHHHSHMSCTVYAKTQQAKFLTWQFDGEYRGDDYTATLTLGNPDLIGESVIMVAHFLQSLTHRLVLGGELVYHRRPGEEGAILTLAGKYSAVHWVATLNVGSGGAHASYYHRANEQVQVGVEFEANTRLQDTTFSFGYHLTLPQANMVFRGLVDSNWCVGAVLEKKMPPLPVTLALGAFLNHWRNRFHCGFSITVG | not soluble |
| MGSDKIHHHHHHMRGIVLFPIINCSGAMVEITSTEMTPPVNDSHEFIPMRGIRNRHLQTMLPRLIRRKVKFNAHWQRLELPDGDFVDLAWSEDPQQAKYKPRLVVFHGLEGSLNSPYAHGLIEAAQKRGWLGVVMHFRGCSGEPNRLNRIYHSGETEDGAWFLRWLQREFGAVPTAAVGYSLGGNMLACLLAKEGRDIPIEAAVIVSAPFVLEACSYHMDKGFSRVYQRYLLNLLKANASRKLAAYPGSLPVNLAQLKSMRRIREFDDLITAKIHGFADAIDYYRQCSAMPLLNQIAKPTLIIHAKDDPFMDHHVIPKAEDLPPQVEYQLTEHGGHVGFIGGTPLRPEMWLERRIPDWLTTYLEASS | not soluble |
| MGHHHHHHSHMHGECVKEEKDFLKKEIVDDTKVKEEPPINHPVGCKRKLAMSRCETCGTEEAKYRCPRCMRYSCSLPCVKKHKAELTCNGVRDKTAYISIQQFTEMNLLSDYRFLEDVARTADHISRDAFLKRPISNKYMYFMKNRARRQGINLKLLPNGFTKRKENSTFFDKKKQQFCWHVKLQFPQSQAEYIEKRVPDDKTINEILKPYIDPEKSDPVIRQRLKAYIRSQTGVQILMKIEYMQQNLVRYYELDPYKSLLDNLRNKVIIEYPTLHVVLKGSNNDMKVLHQVKSESTKNVGNEN | not soluble |

Source: the DeepSol protein solubility set
